Measured values reported in article PMC3196764 (Progress in retinal and eye research, 2011).
One block for each molecule: values may come before it.

Columns and labels:
[1] = molecular target: calmodulin (Bos taurus) (UniProt P62157); settings: cited from earlier work
[2] = molecular target: light-activated unphosphorylated rhodopsin (UniProt P02699 1-348, light-activated)
Chain of light-activated unphosphorylated rhodopsin (P02699 whole entry): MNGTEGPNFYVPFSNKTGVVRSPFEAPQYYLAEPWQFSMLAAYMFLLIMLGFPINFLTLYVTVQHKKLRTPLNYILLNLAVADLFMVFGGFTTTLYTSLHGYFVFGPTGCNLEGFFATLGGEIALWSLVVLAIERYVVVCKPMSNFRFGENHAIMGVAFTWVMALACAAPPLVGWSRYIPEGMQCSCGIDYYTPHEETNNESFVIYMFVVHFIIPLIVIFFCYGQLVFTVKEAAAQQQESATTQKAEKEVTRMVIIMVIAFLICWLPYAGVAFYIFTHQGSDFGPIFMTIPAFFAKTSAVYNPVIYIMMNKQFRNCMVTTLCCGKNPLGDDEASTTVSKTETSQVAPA

Molecule: arrestin-1 (from UniProt P08168)
Kd [1]: 7 µM

percent of the maximum binding achieved at 37°C [2]: 26%
B1: arrestin-1 3A+R175E combination mutant (natural protein, UniProt P08168 1-404, looked up)
chain: MKANKPAPNHVIFKKISRDKSVTIYLGKRDYIDHVERVEPVDGVVLVDPELVKGKRVYVSLTCAFRYGQEDIDVMGLSFRRDLYFSQVQVFPPVGASGATTRLQESLIKKLGANTYPFLLTFPDYLPCSVMLQPAPQDVGKSCGVDFEIKAFATHSTDVEEDKIPKKSSVRLLIEKVQHAPRDMGPQPRAEASWQFFMSDKPLRLAVSLSKEIYYHGEPIPVTVAVTNSTEKTVKKIKVLVEQVTNVVLYSSDYYIKTVAAEEAQEKVPPNSSLTKTLTLVPLLANNRERRGIALDGKIKHEDTNLASSTIIKEGIDKTVMGILVSYQIKVKLTVSGLLGELTSSEVATEVPFRLMHPQPEDPDTAKESFQDENAAAEEFARQNLKDAGEYKEEKTDQEAAMDE
